One may read the Kd as the equilibrium constant for the complex coming apart.

The values below come from the supplement of paper PMC6379048.

Assay in all cases: Kd (EC50 corrected by depletion factor)
Data set [1] has as its target T1, RBMS3 (UniProt Q6XE24).
T1 sequence: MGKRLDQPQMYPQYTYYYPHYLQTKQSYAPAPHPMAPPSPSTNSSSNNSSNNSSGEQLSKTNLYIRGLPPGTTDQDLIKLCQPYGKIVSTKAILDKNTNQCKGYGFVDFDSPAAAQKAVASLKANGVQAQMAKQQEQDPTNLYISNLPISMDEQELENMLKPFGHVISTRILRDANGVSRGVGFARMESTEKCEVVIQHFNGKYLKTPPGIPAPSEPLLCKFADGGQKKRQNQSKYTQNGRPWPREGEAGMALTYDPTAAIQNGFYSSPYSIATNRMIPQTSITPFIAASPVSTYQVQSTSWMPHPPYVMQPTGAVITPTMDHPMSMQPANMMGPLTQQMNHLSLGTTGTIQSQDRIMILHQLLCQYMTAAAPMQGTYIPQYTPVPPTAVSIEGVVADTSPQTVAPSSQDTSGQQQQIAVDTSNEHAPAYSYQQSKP
In outline: (§1)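 HEK293-FT lysate (2.5 mg protein/well) was treated with free RNA oligos (0 nM to 30 μM) for 1 h at 4°C, then with the same oligos on NHS-Sepharose beads for 30 min at 4°C. Bound proteins were quantified by label-free LC-MS/MS relative to the control. EC50 came from a four-parameter log-logistic fit, and Kd is EC50 times a protein-dependent depletion factor.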

The target of data set [2] is T2, HNRNPDL (UniProt O14979).
T2 sequence: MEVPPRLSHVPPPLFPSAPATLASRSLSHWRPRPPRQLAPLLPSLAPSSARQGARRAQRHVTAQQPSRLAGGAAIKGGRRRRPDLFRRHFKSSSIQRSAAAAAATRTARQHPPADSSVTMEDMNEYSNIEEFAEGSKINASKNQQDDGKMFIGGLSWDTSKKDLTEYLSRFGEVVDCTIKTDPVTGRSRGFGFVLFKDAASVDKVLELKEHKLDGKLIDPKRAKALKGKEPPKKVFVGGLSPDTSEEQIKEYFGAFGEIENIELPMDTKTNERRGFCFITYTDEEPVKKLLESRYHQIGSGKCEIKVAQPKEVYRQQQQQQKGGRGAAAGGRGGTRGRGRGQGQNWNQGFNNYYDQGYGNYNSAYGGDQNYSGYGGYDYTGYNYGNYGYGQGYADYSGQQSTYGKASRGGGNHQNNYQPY
A digest of the protocol: as §1

For data set [3], the target named is T3, CMTR1 (UniProt Q8N1G2).
T3 sequence: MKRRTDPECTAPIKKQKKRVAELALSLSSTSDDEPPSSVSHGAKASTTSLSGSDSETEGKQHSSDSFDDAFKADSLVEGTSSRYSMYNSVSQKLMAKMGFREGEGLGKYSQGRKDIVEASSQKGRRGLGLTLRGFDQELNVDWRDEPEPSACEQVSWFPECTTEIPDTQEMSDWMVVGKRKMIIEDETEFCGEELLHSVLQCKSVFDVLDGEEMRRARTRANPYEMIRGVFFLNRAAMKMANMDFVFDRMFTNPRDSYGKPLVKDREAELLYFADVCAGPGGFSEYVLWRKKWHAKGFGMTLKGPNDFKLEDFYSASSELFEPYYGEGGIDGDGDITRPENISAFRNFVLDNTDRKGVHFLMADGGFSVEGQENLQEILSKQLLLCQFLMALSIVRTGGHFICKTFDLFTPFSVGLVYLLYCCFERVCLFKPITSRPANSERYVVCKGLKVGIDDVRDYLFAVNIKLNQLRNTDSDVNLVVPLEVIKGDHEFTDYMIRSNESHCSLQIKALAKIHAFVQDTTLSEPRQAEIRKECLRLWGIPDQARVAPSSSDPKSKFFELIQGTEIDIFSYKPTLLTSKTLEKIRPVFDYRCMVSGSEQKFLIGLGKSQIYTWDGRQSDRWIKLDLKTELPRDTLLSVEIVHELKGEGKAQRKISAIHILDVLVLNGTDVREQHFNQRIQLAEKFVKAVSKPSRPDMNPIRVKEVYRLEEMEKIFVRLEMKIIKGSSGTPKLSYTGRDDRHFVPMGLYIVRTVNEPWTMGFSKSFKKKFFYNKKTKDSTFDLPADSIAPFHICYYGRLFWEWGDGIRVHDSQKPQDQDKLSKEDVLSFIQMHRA
A digest of the protocol: as §1

For data set [4], the target named is T4, FIP1L1 (UniProt Q6UN15).
T4 sequence: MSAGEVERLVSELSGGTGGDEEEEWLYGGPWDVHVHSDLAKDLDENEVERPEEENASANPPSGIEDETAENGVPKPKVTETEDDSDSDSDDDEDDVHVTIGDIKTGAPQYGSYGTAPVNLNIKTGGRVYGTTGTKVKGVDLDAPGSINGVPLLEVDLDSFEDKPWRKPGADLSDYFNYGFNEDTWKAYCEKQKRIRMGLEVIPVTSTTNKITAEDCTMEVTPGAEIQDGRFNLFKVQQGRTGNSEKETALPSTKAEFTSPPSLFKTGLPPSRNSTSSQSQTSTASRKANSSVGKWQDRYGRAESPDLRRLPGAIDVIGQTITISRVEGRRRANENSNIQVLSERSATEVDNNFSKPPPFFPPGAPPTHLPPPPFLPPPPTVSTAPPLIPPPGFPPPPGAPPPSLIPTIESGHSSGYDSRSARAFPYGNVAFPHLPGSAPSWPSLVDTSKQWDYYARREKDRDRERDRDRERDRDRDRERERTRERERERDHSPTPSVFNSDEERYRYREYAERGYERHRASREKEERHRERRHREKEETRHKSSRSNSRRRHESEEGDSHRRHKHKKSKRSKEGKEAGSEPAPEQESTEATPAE
A digest of the protocol: as §1

AAUAAA: the Kd in data set [1] amounted to 153 nM; in data set [2], 152 nM; in data set [3], 209 nM; in data set [4], 8.24 nM.

Consider UAUUUAU, for which the Kd is 97.3 nM in data set [1], 2360 nM in data set [2], 591 nM in data set [3] and 482 nM in data set [4].
